In the nanobody polyreactivity screen of Harvey et al. (2022):

Experiment: yeast display, Sf9 membrane polyspecificity reagent, FACS + sequencing; frameworks hold sequencing errors
In short: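 Genes from sorted yeast were amplified by colony PCR, read by MiSeq 2 × 250 sequencing and filtered on CDR length. These cells carried a synthetic nanobody library in Saccharomyces cerevisiae BJ5465 and were sorted by FACS into low and high (top ~1%) gates on anti-HA and streptavidin fluorescence. Polyreactivity is labelled according to the gate of origin.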

Sequence	polyreactivity (PSR sort gate)
QVQIVDSGGGLVQAGGSLRLSCAASGLIIGPYAMGWYRQAPGKERELVAAITSGTTTYYADSVKGRFTISRDNAKNTVYLQMNSLKPEDTAVYYCAAYWPVNSQPIQIGYLYDYWGQGTQVTVSS	low polyreactivity
QVQIVDSGGGLVQAGGSLRLSCAASGRIIPANAMGWYRQAPGKERELVAAIDYDGGSTYYADSVKGRFTISRDNAKNTVYLQMNSLNPEVTAVYYCAADFYDYEGSYYDYYWGQGTQVTVSS	high polyreactivity
QVQIVDSGGGLVQAGGSLSLSCAASGSTFRGYAMGWYRQAPGKERELVAAITGSGDRTRYADSVKGRFTISRDNAKNTVYLQKNSLKPADTAVNYCAKVWPHWAYYSWGQGTQVTLSS	high polyreactivity
QVQIVESGAGLVHAGGSLRISCAASGRIFWIYAMGWYRQAPGKESELVATITGSGGSTYYADSVKGRFTISRDNAKKTVYLQMNSLKPEVTAVYYCAARYPVSGGYDYWGQGTQVTLSS	low polyreactivity
QVQIVESGAGLVQAGGSLRISCAPSGRTFLYNAMGWYIQAPGKESELVAAIDGGTGSTYYADSVKARFTISRDNAKNTVYLQMIRLNPEDTAGYYCAAETYGVGYPVNYDYWGQGTQVTVSS	low polyreactivity
QVQIVESGGGIVQAGGSLRLSCAASGIIFSGYVMGWYRQAPGKERQLVAAISSGGSKYYADSVKGRFTISRDNAKNTFYLQINSLKPEDTEVYYCAAAGYWTLGYGYWGQGTQVTVSS	low polyreactivity
QVQIVESGGGLDQAGGSLRLSCAASGRTLGYYAMVWYRQAPGIERELVAAISRTGGRTYYADSVKGRFTISLDNAKNTVYLQMNSLKPEDTAVYYCAVVAPDGYDFYYWGQGTQVTVSS	high polyreactivity
QVQIVESGGGLFQAGGILRLSCAASGLTLFRDAMGWYRQAPGKERELVAAIDYGGGTYYADSVKGRFTISRDNAKTTVNLQMNRLKVEDTAVYYCAVEPEYKYYEGDFWGQGTQVTVSS	low polyreactivity
QVQIVESGGGLFQAGGRLPLSCAASGSSFKINDMGWYRHAPGKERELVATITWSTGTTYYADSVKGLFTISRYNAKNTVYLKMNSLKPEYTAVYYCAADYCSYGYVLFDYWGQGTQVTVSS	low polyreactivity
QVQIVESGGGLVQAGGILRLSCAASGITFTSYAMGWYRQAPGKEREFVAAISWSGDRTYYADSVKGRFTISRDNAKNTVYLQMICLKPEETAVYYCNAYIYFSAYDPDYYWGQGTQVTVSS	high polyreactivity
QVQIVESGGGLVQAGGSLRFSCAASGRIFRGYDMGWYRQAPGKEREFVAAISWSGGNTYYADSVKGRFTISRDNAKNTVYLLMNSLNPEDTAVYYCAARVFGSHFYYRTRPYDYWGQGTQVTVSS	high polyreactivity
QVQIVESGGGLVQAGGSLRISCAASGSIFIYYAMGWYRQAPGKDRELVAAISNGGSTNYADSVKGRFTISRDNANNTVYLLMNRLTPEDTSVFYCNKQYWYWSNTLTIRDYWGQGTQVTVSS	low polyreactivity
QVQIVESGGGLVQAGGSLRLICAASGIIFEGYAMGWYRQAPGKERELVAAISQSGGSTRYADSVKGRFTISRDNATNTVYLQMNSLKPEDTAVYYFAKEVWNWGPYYYWGQGTQVTVSS	low polyreactivity
QVQIVESGGGLVQAGGSLRLICAASGRILSANAMGWYRQAPGKERELVAAITYSGDNTYYADYVKGRFTISRDNANNTVYLQMNSLKPEDTAVYYCAREFQVDGGEEDYWGQGTQVTVSS	low polyreactivity
QVQIVESGGGLVQAGGSLRLICAASGSIFFYYAMGWYRQAPGKEWELVAAITFTGGSTYYADSVKGSFTISRDNAKNTVYLQMTSLKPEDTAVYYCAADWYYGFEYEYRGQGTQVTVSS	high polyreactivity
QVQIVESGGGLVQAGGSLRLRCADSGRIFVRYAMGGYIQSPGKDRELVAGITSGSRTNYADSVKGRFTISRDNAKNTVYLQMNSLKPEDTAVYYCAKRYLRYSRLGNYWGQGTQVTVSS	high polyreactivity

Sequence	polyreactivity (PSR sort gate)
QVQIVESGGGLVQAGGSLRLSCAASGFIFFAYAMGWYRQAPGKERELFAAISRTGGSTYYADSVKGRFTISRDNAKNTVYLQMNSLKPEDTAVYYCAADGGYYGRDYWGQGTQVTVSS	high polyreactivity
QVQIVESGGGLVQAGGSLRLSCAASGFTFVYYAMGWYRQAPGKERELVAAISKRGGSTYYADSVKGRFTISRDNAKNTVYLQMNSLKPEDTAVYYCNAGYGRWQRHDYWGQGTLVTVSS	high polyreactivity
QVQIVESGGGLVQAGGSLRLSCAASGFTFWNYAMGWYRQAPGKERELVATITRSGGRTYYADSVKGRFTISRDHAKNTGYLQMNSLIPEDTAVYYCSARVWPVVYSWGYNYLGQGTQVTVSS	high polyreactivity
QVQIVESGGGLVQAGGSLRLSCAASGGIFEINVLGWYRQAPGKERELVAAISSRGGSTYYADSVKGRFTISRDNAKNTVYLQMNSLKPEDTAVYYCARRYRPKYGYWGQGTQVTVSS	high polyreactivity
QVQIVESGGGLVQAGGSLRLSCAASGIIFVRYDIGWYRPAPGKERELVAAISWSGGRTYYADSVKGRFTISRDNAKNTVYLQMNSLKPEDTEVYYCNAKGSYWWYQKDYWGQGTQVTVSS	high polyreactivity
QVQIVESGGGLVQAGGSLRLSCAASGITFYGYAMGWYRQAPGKERELVAVITSSRSSTYYADSVKGRFTISRDNAKNTFFLQMNSLKPEDTEVYYCNPRPGRRSLRSRTYDYWGQGTQVTVSS	high polyreactivity
QVQIVESGGGLVQAGGSLRLSCAASGLIFVVYAMGWNRQATGIERELVADISSVGRTSYADSVKGSFTISRDNAKNNVYLQMNSLKPEDTAVYYCNAYPVFNQYYCWRYDYLGQGTQVTVSS	low polyreactivity
QVQIVESGGGLVQAGGSLRLSCAASGLIFYAYAMGWYRQAPGKERELVAAMSYSGGSTYYADSVKGRFTISRDLAKNTVYLQMNSLKPEDTAVYYCAADDGISTYEYWGQGTQVTVSS	high polyreactivity
QVQIVESGGGLVQAGGSLRLSCAASGLIIPFYAMGWYRQAPGKERELVAAISWSAGSTYYADSVKGRFTISRDNAKNTVYLQMNSLKPEDTAGYYCAATAYYYYDYDYWGQGTQVTVSS	low polyreactivity
QVQIVESGGGLVQAGGSLRLSCAASGLTFRSYTIGWYRHAPGKERELVAAISSGGSTYYADSVKGRFTISRDNAKNTVYLQMNSRKPEDTAVYFCAAPRGHGKYYSWGQGTQVTVSS	high polyreactivity
QVQIVESGGGLVQAGGSLRLSCAASGNTFPAYAMGWYRQAPGKERELVATISWSTGSTNYADSVKGRFTISRDNANNTVYLQMNSLKPEDTAVYYCNKRYPTDQMYYWGQGTLVTVSS	low polyreactivity
QVQIVESGGGLVQAGGSLRLSCAASGRIFAYNAMGWYRQAPGKERELVVAISWTGGRTSYADSVKGRFTISCDNAKNTVYLQMNSLKPEDTAVYYCNARYRYRLRGYDYWGQGTQVTVSS	high polyreactivity
QVQIVESGGGLVQAGGSLRLSCAASGRIFDDYAMGWYRQAPGKEREFVAAISTSGGSTYYADSVMGRFTISRDNAKNTVYLKMNSLKPEDTAVYYCNKYGYYGWFGSRYWHDYWGQGTQVTVAS	high polyreactivity
QVQIVESGGGLVQAGGSLRLSCAASGRIFERYAMGWYRQAPGKERELVAGISISGGGTYYADSVKGRFTISRDNAKNTVYLQMNSLKPEHNAVYYCAGTFPREEYGYWGEGTQVTVSS	low polyreactivity
QVQIVESGGGLVQAGGSLRLSCAASGRIFGYNAMGWYRQAPGKERELVATITVGGGSTYYADSVKGRFTISRDNAKNTVYLQMNSLKPEDTAVYYCAADSGYQPVLHRGYYRFNYWGQGTQVTVSS	low polyreactivity
QVQIVESGGGLVQAGGSLRLSCAASGRIFKLYAMGWSRQAPGKERELVAAITRRGGSTSYADSVKGRFTISRDNAKNTVYLQMNSLKPEDTAVYYCAASYTGRTVVQGYEYWGQGTQVTVSS	high polyreactivity
